Assay results published in the supplement of paper PMC10065799, “High-throughput profiling of sequence recognition by tyrosine kinases and SH2 domains using bacterial peptide display” (eLife, 2023).

Legend:
c-Abl (mouse) = test: phosphorylation enrichment, bacterial display (enrichment ratio); higher = better substrate or ligand; peptides without Tyr show the background
Hck = Hck (UniProt P08631); test: as above
c-Src = test: as above
Fer (mouse) = test: as above
FGFR3 = FGFR3 (UniProt P22607); test: as above
Jak2 = Jak2 (UniProt O60674); test: as above
Jak2, sequence (O60674 whole entry, looked up): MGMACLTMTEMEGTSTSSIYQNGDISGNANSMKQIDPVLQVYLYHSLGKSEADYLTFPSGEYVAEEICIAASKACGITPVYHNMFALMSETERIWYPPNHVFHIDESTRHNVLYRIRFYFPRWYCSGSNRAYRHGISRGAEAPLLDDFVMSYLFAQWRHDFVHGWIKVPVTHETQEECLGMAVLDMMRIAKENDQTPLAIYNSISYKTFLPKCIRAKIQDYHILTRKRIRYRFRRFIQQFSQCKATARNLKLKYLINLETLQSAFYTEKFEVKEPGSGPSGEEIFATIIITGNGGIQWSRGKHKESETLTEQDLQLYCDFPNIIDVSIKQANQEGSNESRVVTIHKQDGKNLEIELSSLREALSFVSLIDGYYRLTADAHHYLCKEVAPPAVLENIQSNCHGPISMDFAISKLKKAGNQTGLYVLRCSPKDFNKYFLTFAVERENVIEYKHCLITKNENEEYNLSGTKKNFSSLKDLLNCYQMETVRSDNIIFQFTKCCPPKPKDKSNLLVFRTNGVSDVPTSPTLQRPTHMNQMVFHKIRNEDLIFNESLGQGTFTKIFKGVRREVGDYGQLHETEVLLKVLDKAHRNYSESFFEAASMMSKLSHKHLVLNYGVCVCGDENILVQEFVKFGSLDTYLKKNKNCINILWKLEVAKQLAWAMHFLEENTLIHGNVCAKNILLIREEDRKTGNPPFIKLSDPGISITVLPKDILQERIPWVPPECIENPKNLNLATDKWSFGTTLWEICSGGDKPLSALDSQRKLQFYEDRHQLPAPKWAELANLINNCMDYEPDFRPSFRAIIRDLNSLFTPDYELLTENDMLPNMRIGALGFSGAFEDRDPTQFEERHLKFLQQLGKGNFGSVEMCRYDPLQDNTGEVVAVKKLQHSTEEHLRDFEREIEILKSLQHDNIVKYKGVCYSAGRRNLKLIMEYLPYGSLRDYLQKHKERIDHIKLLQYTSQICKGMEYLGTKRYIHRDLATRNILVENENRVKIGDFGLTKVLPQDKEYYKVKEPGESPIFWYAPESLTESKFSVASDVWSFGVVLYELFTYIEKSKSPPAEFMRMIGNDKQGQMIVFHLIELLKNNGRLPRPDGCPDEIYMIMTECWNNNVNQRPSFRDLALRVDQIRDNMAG

EPHB2 = EPHB2 (UniProt P29323); test: as above
Fyn = Fyn (UniProt P06241); test: as above
Fyn, sequence (P06241 whole entry, looked up): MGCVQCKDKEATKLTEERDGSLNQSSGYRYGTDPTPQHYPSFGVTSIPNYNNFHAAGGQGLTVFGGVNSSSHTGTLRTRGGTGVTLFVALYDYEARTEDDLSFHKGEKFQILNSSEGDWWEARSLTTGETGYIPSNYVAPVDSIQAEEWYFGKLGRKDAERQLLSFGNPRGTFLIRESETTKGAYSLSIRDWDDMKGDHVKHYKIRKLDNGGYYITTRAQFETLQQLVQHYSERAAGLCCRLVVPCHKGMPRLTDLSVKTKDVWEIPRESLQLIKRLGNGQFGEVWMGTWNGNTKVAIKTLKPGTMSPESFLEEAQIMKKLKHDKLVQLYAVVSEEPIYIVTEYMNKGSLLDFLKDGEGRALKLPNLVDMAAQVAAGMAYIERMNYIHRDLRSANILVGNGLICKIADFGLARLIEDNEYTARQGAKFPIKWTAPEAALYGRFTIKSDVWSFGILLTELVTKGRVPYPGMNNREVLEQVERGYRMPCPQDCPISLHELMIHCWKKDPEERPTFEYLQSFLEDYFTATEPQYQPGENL

EPHB1 = EPHB1 (UniProt P54762); test: as above
EPHB1, sequence (P54762 whole entry, looked up): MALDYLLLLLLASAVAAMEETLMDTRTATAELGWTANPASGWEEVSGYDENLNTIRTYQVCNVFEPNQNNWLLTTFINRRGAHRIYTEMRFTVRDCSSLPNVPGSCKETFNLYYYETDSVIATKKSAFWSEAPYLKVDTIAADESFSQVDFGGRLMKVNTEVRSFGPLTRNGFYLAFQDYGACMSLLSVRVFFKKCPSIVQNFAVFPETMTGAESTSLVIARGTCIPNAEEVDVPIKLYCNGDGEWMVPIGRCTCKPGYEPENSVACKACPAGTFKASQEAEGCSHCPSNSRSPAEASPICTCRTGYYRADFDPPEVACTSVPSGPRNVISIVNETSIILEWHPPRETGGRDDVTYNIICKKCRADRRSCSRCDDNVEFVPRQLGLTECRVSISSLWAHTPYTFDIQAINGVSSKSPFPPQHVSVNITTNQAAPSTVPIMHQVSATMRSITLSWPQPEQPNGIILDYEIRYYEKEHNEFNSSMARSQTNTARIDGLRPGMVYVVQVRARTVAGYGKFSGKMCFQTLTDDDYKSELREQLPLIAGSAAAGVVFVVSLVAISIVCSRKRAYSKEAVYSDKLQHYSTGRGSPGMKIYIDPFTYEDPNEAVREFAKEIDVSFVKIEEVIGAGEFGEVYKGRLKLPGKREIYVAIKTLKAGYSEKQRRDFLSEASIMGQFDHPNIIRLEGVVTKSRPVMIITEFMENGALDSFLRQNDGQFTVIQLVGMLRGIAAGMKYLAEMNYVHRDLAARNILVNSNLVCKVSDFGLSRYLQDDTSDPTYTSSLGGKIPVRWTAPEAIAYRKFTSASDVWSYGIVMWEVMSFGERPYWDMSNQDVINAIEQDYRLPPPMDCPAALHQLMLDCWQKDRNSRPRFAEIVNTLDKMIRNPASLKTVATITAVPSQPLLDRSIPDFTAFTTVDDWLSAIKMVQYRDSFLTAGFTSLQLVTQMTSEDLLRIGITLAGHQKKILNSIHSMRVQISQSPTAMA

AncSZ = test: as above
FGFR1 = FGFR1 (UniProt P11362); test: as above
Fes = Fes (UniProt P07332); test: as above
Fes, sequence (P07332 whole entry, looked up): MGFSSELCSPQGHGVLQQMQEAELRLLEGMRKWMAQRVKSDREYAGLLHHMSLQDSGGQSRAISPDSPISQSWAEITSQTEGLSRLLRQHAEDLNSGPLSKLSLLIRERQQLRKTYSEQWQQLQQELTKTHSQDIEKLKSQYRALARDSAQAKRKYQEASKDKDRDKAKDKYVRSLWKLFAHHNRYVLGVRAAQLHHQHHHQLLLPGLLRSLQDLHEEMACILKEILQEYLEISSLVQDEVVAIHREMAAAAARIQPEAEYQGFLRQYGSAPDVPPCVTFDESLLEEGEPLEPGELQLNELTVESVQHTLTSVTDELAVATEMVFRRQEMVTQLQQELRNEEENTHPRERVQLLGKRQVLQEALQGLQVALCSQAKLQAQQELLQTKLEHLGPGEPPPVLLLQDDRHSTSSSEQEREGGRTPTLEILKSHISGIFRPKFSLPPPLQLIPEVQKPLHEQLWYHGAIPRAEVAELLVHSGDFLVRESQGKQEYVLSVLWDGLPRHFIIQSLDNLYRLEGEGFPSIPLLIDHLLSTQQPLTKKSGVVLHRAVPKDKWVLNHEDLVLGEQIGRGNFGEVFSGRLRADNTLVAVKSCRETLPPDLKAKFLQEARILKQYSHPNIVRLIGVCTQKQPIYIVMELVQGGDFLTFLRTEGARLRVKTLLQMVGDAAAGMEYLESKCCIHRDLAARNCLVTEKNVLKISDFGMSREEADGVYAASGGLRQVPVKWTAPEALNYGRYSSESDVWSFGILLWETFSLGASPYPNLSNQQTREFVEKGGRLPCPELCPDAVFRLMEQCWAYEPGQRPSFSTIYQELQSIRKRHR

MERTK = MERTK (UniProt Q12866); test: as above
MERTK, sequence (Q12866 whole entry, looked up): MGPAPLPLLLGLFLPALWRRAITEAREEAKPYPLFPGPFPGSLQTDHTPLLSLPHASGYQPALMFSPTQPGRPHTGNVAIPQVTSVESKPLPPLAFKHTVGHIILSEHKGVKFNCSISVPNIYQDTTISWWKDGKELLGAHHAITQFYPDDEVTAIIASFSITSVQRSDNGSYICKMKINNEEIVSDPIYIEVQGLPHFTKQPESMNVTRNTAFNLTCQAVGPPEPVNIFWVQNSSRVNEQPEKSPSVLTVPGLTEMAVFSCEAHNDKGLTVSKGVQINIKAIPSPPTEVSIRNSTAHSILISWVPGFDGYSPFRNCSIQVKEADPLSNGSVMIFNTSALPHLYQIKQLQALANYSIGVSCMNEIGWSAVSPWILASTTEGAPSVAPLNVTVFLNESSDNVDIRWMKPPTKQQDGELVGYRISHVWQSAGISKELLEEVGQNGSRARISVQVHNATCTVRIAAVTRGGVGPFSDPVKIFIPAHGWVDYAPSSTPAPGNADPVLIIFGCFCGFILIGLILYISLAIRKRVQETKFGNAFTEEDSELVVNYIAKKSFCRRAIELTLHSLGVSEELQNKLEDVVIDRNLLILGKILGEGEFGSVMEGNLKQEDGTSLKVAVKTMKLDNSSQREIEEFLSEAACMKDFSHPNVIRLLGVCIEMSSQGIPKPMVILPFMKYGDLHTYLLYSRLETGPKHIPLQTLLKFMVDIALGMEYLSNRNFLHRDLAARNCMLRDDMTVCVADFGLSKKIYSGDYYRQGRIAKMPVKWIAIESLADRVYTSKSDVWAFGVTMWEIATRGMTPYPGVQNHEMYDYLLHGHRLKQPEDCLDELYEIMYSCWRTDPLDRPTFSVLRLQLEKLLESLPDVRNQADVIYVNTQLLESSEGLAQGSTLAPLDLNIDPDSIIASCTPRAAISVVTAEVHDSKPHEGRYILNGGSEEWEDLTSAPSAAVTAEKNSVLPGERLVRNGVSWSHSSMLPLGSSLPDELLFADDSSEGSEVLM

c-Src SH2 = test: SH2 binding enrichment of the phosphorylated peptide, bacterial display (enrichment ratio); higher = better substrate or ligand; peptides without Tyr show the background
SHP2-C SH2 = test: as above
Grb2 SH2 = Grb2 SH2 (UniProt P62993); test: as above
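Wherever SH2 binding enrichment of the phosphorylated peptide, bacterial display is given: peptide library displayed on the E. coli surface as eCPX fusions, selected cells deep-sequenced, score is each peptide's frequency after selection divided by its frequency in the input.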
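Wherever phosphorylation enrichment, bacterial display is given: 11-residue human phosphosite peptides and single-mutation variants displayed on the E. coli surface, counted by deep sequencing, each peptide's frequency after selection divided by its frequency in the unselected input library; frequency after pTyr selection over input frequency; kinase dosed for 20-30% of maximal phosphorylation in three min.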

Hck, sequence (P08631 whole entry, looked up): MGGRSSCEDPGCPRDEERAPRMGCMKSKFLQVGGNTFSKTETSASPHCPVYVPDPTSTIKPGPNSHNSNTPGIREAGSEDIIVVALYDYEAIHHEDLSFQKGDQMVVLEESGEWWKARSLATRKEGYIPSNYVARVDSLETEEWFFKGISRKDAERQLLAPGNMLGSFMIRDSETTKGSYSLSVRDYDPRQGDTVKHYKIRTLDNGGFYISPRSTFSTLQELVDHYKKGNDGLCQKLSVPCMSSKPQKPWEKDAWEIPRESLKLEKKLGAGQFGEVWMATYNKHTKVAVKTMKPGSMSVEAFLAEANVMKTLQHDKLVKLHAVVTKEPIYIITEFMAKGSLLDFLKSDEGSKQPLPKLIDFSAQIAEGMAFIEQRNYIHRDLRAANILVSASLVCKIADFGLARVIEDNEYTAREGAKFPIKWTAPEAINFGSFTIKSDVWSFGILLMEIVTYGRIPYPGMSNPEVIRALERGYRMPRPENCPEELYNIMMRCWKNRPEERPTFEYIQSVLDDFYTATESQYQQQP

| Sequence | SH2 binding enrichment (c-Src SH2) | SH2 binding enrichment (SHP2-C SH2) | SH2 binding enrichment (Grb2 SH2) | phosphorylation enrichment (c-Abl (mouse)) | phosphorylation enrichment (Hck) | phosphorylation enrichment (c-Src) | phosphorylation enrichment (Fer (mouse)) | phosphorylation enrichment (FGFR3) | phosphorylation enrichment (Jak2) | phosphorylation enrichment (EPHB2) | phosphorylation enrichment (Fyn) | phosphorylation enrichment (EPHB1) | phosphorylation enrichment (AncSZ) | phosphorylation enrichment (FGFR1) | phosphorylation enrichment (Fes) | phosphorylation enrichment (MERTK) |
| --- | --- | --- | --- | --- | --- | --- | --- | --- | --- | --- | --- | --- | --- | --- | --- | --- |
| RLAKTYKTTLE [ALB_Y377_E378K] | 0.672 | 0.669 | 1.01 | 1.18 | 0.388 | 0.441 | 0.624 | 0.446 | 0.72 | 0.509 | 0.253 | 0.324 | 0.564 | 0.513 | 0.632 | 0.365 |
| IRQDHYESLKE [MTR_Y921] | 5.75 | 0.771 | 0.961 | 0.56 | 0.594 | 0.48 | 0.483 | 0.693 | 0.733 | 0.482 | 0.494 | 0.529 | 0.755 | 0.45 | 0.873 | 0.509 |
| CTTIHYNNMCN [TP53_Y234_Y236N] | 1.89 | 0.818 | 2.45 | 0.528 | 0.532 | 0.416 | 0.404 | 0.538 | 0.551 | 0.479 | 0.486 | 0.455 | 0.734 | 0.423 | 0.943 | 0.367 |
| ENFSEYQEISV [HEMGN_Y150_A154S] | 0.617 | 0.749 | 0.827 | 0.965 | 0.987 | 0.873 | 1.42 | 1.53 | 1.14 | 1.46 | 0.594 | 2.45 | 1.59 | 1.89 | 1.39 | 0.659 |
| YAFQLYDLDPD [CHP2_Y123_R127P] | 1.28 | 1.71 | 0.986 | 0.78 | 2.56 | 5 | 0.916 | 1.37 | 1.32 | 0.998 | 4.7 | 1.52 | 1.66 | 1.65 | 1.37 | 2.01 |
| QRKRAYVEIEY [MAK16_Y282] | 4.61 | 0.718 | 0.675 | 2.01 | 0.672 | 0.68 | 0.441 | 0.663 | 0.73 | 0.463 | 0.585 | 0.362 | 0.696 | 0.623 | 0.752 | 0.416 |
| EKKDIYKAGEQ [CFH_Y1008_V1007I] | 0.365 | 0.648 | 0.826 | 0.5 | 0.373 | 0.431 | 0.362 | 0.364 | 0.488 | 0.424 | 0.341 | 0.353 | 0.493 | 0.327 | 0.696 | 0.362 |
| EYKDAYTFAAD [BRDT_Y335_K336T] | 0.61 | 0.727 | 0.876 | 0.556 | 0.548 | 1.29 | 0.555 | 0.74 | 1.11 | 0.595 | 0.833 | 0.553 | 1.15 | 0.511 | 1.09 | 0.51 |
| TTKGSYSLFVR [HCK_Y180_S183Y_YF] | 0.552 | 0.837 | 1.08 | 0.546 | 0.441 | 0.419 | 0.43 | 0.57 | 0.742 | 0.846 | 0.418 | 0.351 | 1 | 0.383 | 1.09 | 0.45 |
| SSYSRYIMMPN [LEF1_Y114_G113R] | 1.32 | 1.56 | 0.665 | 0.405 | 0.488 | 0.518 | 0.552 | 1.3 | 2.35 | 1.84 | 0.542 | 1.9 | 0.654 | 1.79 | 0.637 | 3.9 |
| NVFGNYNNQSS [HNRNPA1_Y318_D314V] | 0.397 | 0.508 | 0.78 | 0.352 | 0.424 | 0.293 | 0.448 | 0.546 | 0.489 | 0.467 | 0.315 | 0.421 | 0.475 | 0.399 | 0.537 | 0.289 |
| GFVEDYRPPFY [ACVRL1_Y421_I417F] | 0.626 | 1.03 | 0.96 | 0.868 | 0.496 | 0.522 | 0.541 | 0.754 | 0.969 | 0.491 | 0.517 | 0.495 | 1.33 | 0.56 | 1.13 | 0.52 |
| QRKRAYVEIEF [MAK16_Y282_YF] | 3.17 | 2.48 | 1.55 | 0.631 | 0.398 | 0.63 | 0.48 | 0.785 | 0.723 | 0.594 | 0.655 | 0.838 | 0.926 | 0.617 | 1.42 | 0.643 |
| REVVNYVQKRN [RMI1_Y450] | 0.632 | 0.787 | 1.1 | 0.975 | 0.696 | 0.582 | 0.554 | 0.521 | 0.598 | 0.595 | 0.541 | 0.622 | 0.931 | 0.36 | 1.08 | 0.869 |
| NVADHYGVYKP [ATP6V0D2_Y271] | 0.597 | 0.647 | 0.917 | 0.587 | 3.71 | 4.89 | 0.424 | 0.451 | 0.517 | 0.391 | 5.55 | 0.401 | 0.571 | 0.461 | 0.645 | 0.356 |
| KVKPIYFRTQG [AR_Y916_H918R] | 1.51 | 1.76 | 1.63 | 0.626 | 0.495 | 0.454 | 0.477 | 0.448 | 0.491 | 0.396 | 0.404 | 0.356 | 0.701 | 0.475 | 0.644 | 0.401 |
| DQIDTYELSGA [DNM1_Y354_G359A] | 0.493 | 0.727 | 0.824 | 0.681 | 0.741 | 0.793 | 0.637 | 0.809 | 1.03 | 0.554 | 0.964 | 0.545 | 1.21 | 0.475 | 1.16 | 0.475 |
| HDRNTYEKFLE [TF_Y666_G671E_YF] | 3.06 | 0.639 | 0.972 | 0.561 | 0.491 | 0.818 | 0.56 | 0.522 | 0.859 | 0.64 | 0.741 | 0.525 | 1.07 | 0.432 | 1.03 | 0.848 |
| GLAKEYTDPET [CSNK1G2_Y195_I196T] | 1.1 | 0.671 | 0.873 | 0.662 | 0.579 | 0.339 | 0.398 | 0.92 | 1.9 | 0.736 | 0.634 | 0.494 | 1.28 | 0.323 | 1.07 | 0.473 |
| KYVKMYDNHQL [MYO9A_Y203] | 1.3 | 0.76 | 0.808 | 0.696 | 0.489 | 0.418 | 0.441 | 0.432 | 0.51 | 0.448 | 0.46 | 0.481 | 0.552 | 0.557 | 0.726 | 0.544 |
| PFADPYFDFEI [ZC3H18_Y371_YF] | 0.666 | 1.03 | 0.857 | 0.811 | 0.597 | 4.46 | 0.902 | 6.94 | 1.7 | 0.369 | 0.885 | 0.673 | 1.48 | 9.45 | 1.16 | 0.638 |

Now from value to sequence, other results behind:

| SH2 binding enrichment (c-Src SH2) | SH2 binding enrichment (SHP2-C SH2) | SH2 binding enrichment (Grb2 SH2) | Sequence | phosphorylation enrichment (c-Abl (mouse)) | phosphorylation enrichment (Hck) | phosphorylation enrichment (c-Src) | phosphorylation enrichment (Fer (mouse)) | phosphorylation enrichment (FGFR3) | phosphorylation enrichment (Jak2) | phosphorylation enrichment (EPHB2) | phosphorylation enrichment (Fyn) | phosphorylation enrichment (EPHB1) | phosphorylation enrichment (AncSZ) | phosphorylation enrichment (FGFR1) | phosphorylation enrichment (Fes) | phosphorylation enrichment (MERTK) |
| --- | --- | --- | --- | --- | --- | --- | --- | --- | --- | --- | --- | --- | --- | --- | --- | --- |
| 1.76 | 1.2 | 1.24 | VFFGSYSRPFG [NKAP_Y104_YF] | 1.02 | 0.479 | 0.584 | 0.419 | 0.65 | 1.12 | 0.445 | 0.382 | 0.396 | 1.39 | 0.522 | 0.974 | 0.777 |
| 0.923 | 0.885 | 0.991 | FAFQLYDLDRD [CHP2_Y123_YF] | 0.823 | 1.03 | 2.17 | 0.631 | 0.68 | 1.13 | 0.673 | 1.2 | 1.23 | 1.06 | 0.467 | 1.37 | 0.694 |
| 0.543 | 0.857 | 0.736 | ILDEAYVMAGA [ERBB2_Y772_V777A] | 0.761 | 0.537 | 0.744 | 0.516 | 0.789 | 0.986 | 0.67 | 0.596 | 0.662 | 1.48 | 0.639 | 1.27 | 0.507 |
| 1.88 | 0.845 | 0.812 | STTIHYNYMCN [TP53_Y234_C229S] | 0.71 | 0.543 | 0.458 | 0.592 | 0.809 | 0.792 | 0.677 | 0.517 | 0.603 | 1 | 0.629 | 1.14 | 0.53 |
| 0.923 | 1.12 | 1.21 | WIPIQYLIISE [NOG_Y222_P223L] | 0.858 | 0.573 | 0.457 | 0.666 | 0.838 | 1.2 | 0.723 | 0.474 | 0.624 | 1.2 | 0.58 | 1.43 | 0.436 |
| 0.641 | 1.15 | 0.991 | IPGMEYLVSII [TNC_Y1775_V1773M] | 0.825 | 0.522 | 0.583 | 0.722 | 0.889 | 1.11 | 0.855 | 0.612 | 0.65 | 1.44 | 0.72 | 1.41 | 0.565 |
| 0.887 | 0.838 | 0.972 | GEFHVYRHLRW [PRKRIP1_Y82_R87W] | 0.723 | 0.429 | 0.329 | 0.413 | 0.682 | 0.995 | 0.458 | 0.428 | 0.499 | 1 | 0.442 | 1.08 | 0.345 |
| 0.535 | 0.629 | 0.644 | EWCSPYGLTPR [GRIN3B_Y601_R598C] | 0.734 | 1.04 | 3.91 | 1.2 | 0.613 | 0.778 | 0.569 | 1.76 | 0.556 | 0.815 | 0.474 | 1.02 | 1.01 |
| 0.689 | 1.26 | 0.962 | DDLTDYLMKIL [ACTA1_Y190_R185D] | 0.758 | 0.519 | 0.548 | 0.457 | 0.669 | 1.15 | 0.553 | 0.444 | 0.476 | 1.22 | 0.516 | 1.1 | 0.529 |
| 1.01 | 1.02 | 1.53 | LFLALYTGLVR [PIGB_Y402_H407R] | 0.896 | 1.59 | 1.66 | 0.539 | 0.747 | 1.18 | 0.573 | 0.82 | 0.628 | 1.31 | 0.452 | 1.24 | 0.759 |
| 0.402 | 0.486 | 0.794 | MRALIYNSSTA [PLEKHA7_Y243] | 0.741 | 0.647 | 0.724 | 0.424 | 0.493 | 0.8 | 0.453 | 0.622 | 0.507 | 0.834 | 0.448 | 0.772 | 0.465 |
| 0.971 | 0.627 | 0.908 | IGVDSYSVCKR [RPS6KA3_Y433_G431D] | 0.417 | 0.387 | 0.322 | 0.366 | 0.405 | 0.462 | 0.418 | 0.347 | 0.402 | 0.537 | 0.381 | 0.577 | 0.338 |
